The source of these data is US20120208753A1 (published 2012).

This series concerns the molecule itself. The experiment in a line: non-reducing PAGE of protein isolated from CHO cells.

B1: active domain of GDF-6 fused to a FLAG tag (SEQ ID NO: 25) (ligand)
chain: MDYKDDDDKENLYFQGTAFASRHGKRHGKKSRLRCSKKPLHVNFKELGWDDWIIAPLEYEAYHCEGVCDFPLRSHLEPTNHAIIQTLMNSMDPGSTPPSCCVPTKLTPISILYIDAGNNVVYKQYEDMVVESCGCR
notes: It was secreted by CHO cells; the Western blot was run under reducing conditions; also called active fragment of GDF-6; active fragment
As for B1, the binding result was “binds”.
